What was measured:
[1] = target: trans-membrane receptor kinase RET (UniProt P07949); experiment: cell-based or functional assay
[2] = target: GDNF family receptor alpha 1 (GFRA1) (UniProt P56159); experiment: cell-based or functional assay
Sequence of GDNF family receptor alpha 1 (GFRA1) (P56159 25-429 limits assumed): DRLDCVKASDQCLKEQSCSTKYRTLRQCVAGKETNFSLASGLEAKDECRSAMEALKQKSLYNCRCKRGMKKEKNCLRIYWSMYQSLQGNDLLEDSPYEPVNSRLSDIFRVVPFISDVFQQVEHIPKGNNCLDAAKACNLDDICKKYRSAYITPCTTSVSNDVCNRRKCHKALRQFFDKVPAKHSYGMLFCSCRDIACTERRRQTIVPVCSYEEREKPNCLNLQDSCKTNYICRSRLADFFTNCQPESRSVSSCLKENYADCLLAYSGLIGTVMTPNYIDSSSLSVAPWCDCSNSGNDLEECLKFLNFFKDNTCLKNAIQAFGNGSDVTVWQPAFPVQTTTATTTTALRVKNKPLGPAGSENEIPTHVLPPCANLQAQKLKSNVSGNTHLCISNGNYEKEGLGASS

Sequence of trans-membrane receptor kinase RET (P07949 29-1114 limits assumed): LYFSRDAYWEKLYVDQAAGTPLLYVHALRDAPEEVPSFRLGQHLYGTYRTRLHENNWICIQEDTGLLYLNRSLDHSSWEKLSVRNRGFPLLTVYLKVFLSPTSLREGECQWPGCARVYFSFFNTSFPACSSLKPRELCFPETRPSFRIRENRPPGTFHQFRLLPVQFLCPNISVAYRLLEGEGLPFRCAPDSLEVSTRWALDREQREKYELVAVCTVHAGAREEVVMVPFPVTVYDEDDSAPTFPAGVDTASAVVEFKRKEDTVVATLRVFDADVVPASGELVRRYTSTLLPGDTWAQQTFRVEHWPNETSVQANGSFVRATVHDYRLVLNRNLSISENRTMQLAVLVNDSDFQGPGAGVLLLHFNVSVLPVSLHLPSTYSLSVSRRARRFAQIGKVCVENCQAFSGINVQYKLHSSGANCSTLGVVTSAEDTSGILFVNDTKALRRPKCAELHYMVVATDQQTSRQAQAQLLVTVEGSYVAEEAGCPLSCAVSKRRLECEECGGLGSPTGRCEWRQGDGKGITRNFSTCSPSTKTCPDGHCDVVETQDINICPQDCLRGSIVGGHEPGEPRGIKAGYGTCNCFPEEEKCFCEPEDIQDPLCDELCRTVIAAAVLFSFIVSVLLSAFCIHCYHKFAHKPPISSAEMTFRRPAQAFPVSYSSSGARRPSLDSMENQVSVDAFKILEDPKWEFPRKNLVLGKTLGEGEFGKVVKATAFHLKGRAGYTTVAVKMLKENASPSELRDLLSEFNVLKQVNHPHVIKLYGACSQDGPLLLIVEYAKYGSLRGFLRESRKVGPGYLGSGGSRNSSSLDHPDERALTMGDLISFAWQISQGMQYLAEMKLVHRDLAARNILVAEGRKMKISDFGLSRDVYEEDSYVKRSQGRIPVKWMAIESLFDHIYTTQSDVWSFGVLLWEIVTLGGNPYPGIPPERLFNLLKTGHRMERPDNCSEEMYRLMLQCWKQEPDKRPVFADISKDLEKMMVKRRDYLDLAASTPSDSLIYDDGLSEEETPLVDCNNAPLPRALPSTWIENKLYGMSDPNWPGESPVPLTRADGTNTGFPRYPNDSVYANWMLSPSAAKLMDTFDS

proliferation, GDNF concentration of maximum stimulation [1]: 10 ng/mL | proliferation, GDNF concentration of maximum stimulation [2]: 10 ng/mL
Substance: glial cell line-derived neurotrophic factor (GDNF) (from UniProt P39905 78-211) (ligand)
